Assay results published in publication PMC8419023.

Target: FITC-Skp2^77−86 peptide (human) (UniProt Q13309)
Assay: fluorescence polarisation

Chain of FITC-Skp2^77−86 peptide (human) (Q13309 whole entry, looked up, tested part not stated): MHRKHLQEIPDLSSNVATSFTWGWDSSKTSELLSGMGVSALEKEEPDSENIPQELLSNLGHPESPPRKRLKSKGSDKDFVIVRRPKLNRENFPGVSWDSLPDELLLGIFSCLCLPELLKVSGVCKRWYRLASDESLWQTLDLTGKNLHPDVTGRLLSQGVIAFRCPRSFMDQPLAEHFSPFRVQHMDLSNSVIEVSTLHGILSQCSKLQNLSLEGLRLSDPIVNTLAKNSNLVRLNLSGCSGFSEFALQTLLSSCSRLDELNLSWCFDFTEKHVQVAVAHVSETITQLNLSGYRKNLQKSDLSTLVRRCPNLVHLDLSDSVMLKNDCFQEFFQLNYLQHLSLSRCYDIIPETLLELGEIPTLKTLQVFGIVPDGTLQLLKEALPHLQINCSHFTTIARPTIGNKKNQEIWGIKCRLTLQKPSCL

fold reduction of binding affinity against wild type: 5 fold
Substance: CDK2-cyclin A M210A/I213A (from UniProt P24941 1-298; P20248 173-432) (complex)
